Assay results from the DeepSol protein solubility set.

test: soluble on expression in E. coli; label from the status in PepcDB or PDB records

Sequence | soluble on expression in E. coli
MYCIEEKIEKALGIKEASLVLKNCNIVNVFSSEIIRGDLAIDGDTIIGIGKYKGKTEIDLSNKYVAPGFIDSHVHIESSMVSPKEFARAVISRGTTTIIVDPHEIANVCGMDGIKYMMEETKNMPLDVFFMLSSCVPLEHHHHHH | not soluble
MGSDKIHHHHHHMEKVLEIRDLKVYFDLTEGTVKAVDGVSFDIRRGEILGLVGESGCGKSVTAQSILRILPKSARIVNGEIVFHRNGKTLDLTRLDPEGEEIRDIRGKDISMIFQEPMASFSPVYTVGAQMIEAILLHENVSKEEARKRVVEMLKKVKIPNAEKVVDMYPFELSGGMLQRCMIAMAMSLNPTLLLADEPTTALDVTIQAQILYLMKELQKEYHSSILLITHDMGVVAQMADRVAVMYLGNIVETAEVFELFKNPLHPYTQALLRSIPKIGIRKTRLETIKGMVPDPYNLPTGCRFHNRCEKFMKGLCDVKEPPEVEVKPGHKVKCFLYGGEKE | not soluble
MAHHHHHHMALYIIGLGLGDERDVSVKGKELIEMSDVVYLESYTSVLFVSKNTLEEFYKKNIKEVDRNLAEENCEEILKEAINKKVSFLVVGDPLCATTHHDIILRAKKKNINVQVIHNASVMSAIGESGMQLYNFGQTVSIPYFEGNYKPTSFYDKIKVNLDNNFHTLCLLDIKVKERTIENMMKNKNIYEPSRFMTVNEAIEQLLYCEEVLKKNVITDNTRGIAIVRIGSDSQQIVSGSLLALKSVSYNDPLHSLIICAPTLHDVEREYFEMYQHRC | soluble
MGSDKIHHHHHHMAENWKNCFEEELICPICLHVFVEPVQLPCKHNFCRGCIGEAWAKDSGLVRCPECNQAYNQKPGLEKNLKLTNIVEKFNALHVEKPPAALHCVFCRRGPPLPAQKVCLRCEAPCCQSHVQTHLQQPSTARGHLLVEADDVRAWSCPQHNAYRLYHCEAEQVAVCQYCCYYSGAHQGHSVCDVEIRRNEIRKMLMKQQDRLEEREQDIEDQLYKLESDKRLVEEKVNQLKEEVRLQYEKLHQLLDEDLRQTVEVLDKAQAKFCSENAAQALHLGERMQEAKKLLGSLQLLFDKTEDVSFMKNTKSVKILMDRTQTCTSSSLSPTKIGHLNSKLFLNEVAKKEKQLRKMLEGPFSTPVPFLQSVPLYPCGVSSSGAEKRKHSTAFPEASFLETSSGPVGGQYGAAGTASGEGQSGQPLGPCSSTQHLVALPGGAQPVHSSPVFPPSQYPNGSAAQQPMLPQYGGRKILVCSVDNCYCSSVANHGGHQPYPRSGHFPWTVPSQEYSHPLPPTPSVPQSLPSLAVRDWLDASQQPGHQDFYRVYGQPSTKHYVTS | not soluble
MKNIVSAFGIIPRNNRLMYIHSYQSYVWNTMVSRRIEEYGLRPVPGDLVLKGATPTYIEEDDVDNYSIHDVVMPLPGFDVIYPKHKISEAYREMLAADNLDIDNMRHTIRDYSLSGAYRRIIIRPQSVSWEVVAYDDPKIPLFNTDVDNLEGKPPPVFASEGKYRALKMDFSLPPSTYATMAIREVLKMDTSIKNQTQLNTSWLR | not soluble
GMTSNGQQGKPNLPEKDNLPRELGTQRINSPIARMGMFGAKTTGDTSGYGRLRVYRHVPAAAQRPYSDPSDPRTAYFDEVADALERSLKEIGTPYDTAISRVVVDRGEITFHVQREHLLDVATRLRDDPALRFELCLGVTGVHYPEDEGNELHAVYALRSITHNYEIRLEVSCPDSDPHIPSIVSVYPTNDWHEREAWDFFGIIFDGHPALTR | soluble
MTLMGFRVKKVRNHVLWDKENDDRNAFTVIIGNNGCGKTELLIDTCNKYHSYYTSALLDKDTHVASAVHYLREDFSPHNWKTVEREYGHRLPRKLIAASTSQFEKFKANWSVRNDLVPSGFYAYIGSKPYMPSLSPSTRIASKAIQQLLGAEYFEERKHKALVGFLSKFDFGQKLLLKFELTFPNEDLENIQNQSLTEPETQLILKNAYIEHDEMELVELLGYCERIIEAPAFALTVGNQNLNLIHLKGSEQKPFSKLIISRMLRAGLITLSSIQTMKDKSLINDQSTVNIESSAISSLSKRSSGEQ | not soluble
VQLSPDLLATLPEPASPGRQACGRRHKKRTFLRPRIIGGSSSLPGSHPWLAAIYIGDSFCAGSLVHTCWVVSAAHCFSHSPPRDSVSVVLGQHFFNRTTDVTQTFGIEKYIPYTLYSVFNPSDHDLVLIRLKKKGDRCATRSQFVQPICLPEPGSTFPAGHKCQIAGWGHLDENVSGYSSSLREALVPLVADHKCSSPEVYGADISPNMLCAGYFDCKSDACQGDSGGPLACEKNGVAYLYGIISWGDGCGRLHKPGVYTRVANYVDWINDRIRPPRRLVAPS | soluble
MGSDKIHHHHHHMDKLQRISEAIKSKKKLVVMFSGGVDSTLLAKLAREVLGKNAVALTIDSPVIPRKEIEEAKNLANLIGIRHEFIELNELKSRHLIENPPDRCYLCRKLRDNIVKNWARENGFDVIADGLNFSDLQDYRPGVKASTEDGIWHPFIDFEVTKEEIREYSKKLGLPTWDKPAMACLCSRFPYGFGLNEERVRMVEKAENFLRELGFREVRVRFFPYKTAVVEVGRDEMELLMGKRTDIVLALQKIGFSFVTLDLEGFASGKLNRTIEGMSK | not soluble
MRKTLTALFIAAALPTFAMAAPAANDLPPPPMEGGHMMGQHGPRHGGPMKELDLTREQRQQMGKLMGEQMKARHEITQRYLAKLPAAEQKALKDELKASHEKTQKDIRALLTPEQQKKFDELQKKREQRKAEWAEFQQWKADKKSNLEHHHHHH | soluble
MSLQDDIKEKKKLVVAVSPDYAPFEFKALVNGKDTVVGADIDLAKAIAKELGVKLELSSMSFDNVLSSLKTGKADIAISGLSYTKERAQAYDFSEAYYKTENAILIKKSDLNKYTMISSFNNKTKVAVQKGTIEEGLAKNQLKQSNITSLTSMGEAVNELKSGQVDAIDLEKPVAEGYVSQNSDLVLAKVALKTGEGDAKAVALPKDSGQLVKTVNKVIKKLKKEDKYKQFISDAVKLTGQQVDEGHHHHHH | soluble
MSLMVIRPVERSDVSALMQLASKTGGGLTSLPANEATLSARIERAIKTWQGELPKSEQGYVFVLEDSETGTVAGICAIEVAVGLNDPWYNYRVGTLVHASKELNVYNALPTLFLSNDHTGSSELCTLFLDPDWRKEGNGYLLSKSRFMFMAAFRDKFNDKVVAEMRGVIDEHGYSPFWQSLGKRFFSMDFSRADFLCGTGQKAFIAELMPKHPIYTHFLSQEAQDVIGQVHPQTAPARAVLEKEGFRYRNYIDIFDGGPTLECDIDRVRAIRKSRLVEVAEGQPAQGDFPACLVANENYHHFRVVLVRTDPATERLILTAAQLDALKCHAGDRVRLVRLCAEEKTAEGHHHHHH | soluble
AHHHHHHGSPRLIKDRVPTPERSVGERVRDFGEVNLGYSWELALREAERCLQCPVEYAPCIKGCPVHINIPGFIKALRENRDNPSKAVREALRIIWRDNTLPAITGRVCPQEEQCEGACVVGKVGDPINIGKLERFVADYAREHGIDDELLLEEIKGIKRNGKKVAIIGAGPAGLTCAADLAKMGYEVTIYEALHQPGGVLIYGIPEFRLPKEIVKKELENLRRLGVKIETNVLVGKTITFEELREEYDAIFIGTGAGTPRIYPWPGVNLNGIYSANEFLTRINLMKAYKFPEYDTPIKVGKRVAVIGGGNTAMDAARSALRLGAEVWILYRRTRKEMTAREEEIKHAEEEGVKFMFLVTPKRFIGDENGNLKAIELEKMKLGEPDESGRRRPIPTGETFIMEFDTAIIAIGQTPNKTFLETVPGLKVDEWGRIVVDENLMTSIPGVFAGGDAIRGEATVILAMGDGRKAAKAIHQYLSKEK | soluble
MSSNHPLDQLYRQVIMDHYKNPRNRGVLEGTNVDVNMNNPTCGDRIHLTMKVEDGKVADVKFEGEGCSISMSSASMMTQAIKGKTVEEALRLAHIFSDMIQGKEYDDSVDLGDIEALQGVSKFPARIKCATLAWKALEKGLHNHEHEGR | not soluble
MSLATARTYLASLTVATEDRTGYDRDLFPHWITQSGTCNTRETILKRDGTNVVTDSSCAATSGSWYSPYDGATWSASSDVDIDHMVPLAEAWDSGADSWTTSRRQSFANDLTRPQLLAVTDNVNQSKGDQDPATWMPSRSAYRCTYVRAWVQVKYYYDLSVDSAEKSAMQGYLANCEGHHHHHH | not soluble
FFFTVAFLLVFSIAGLVEILPDFAKASRPTENLKPYSMLETAGRQLYIKESCNACHSQLVRPFKSETDRYGAYSLSGEYAYDRPFLWGSKRTGPDLHRVGDYRTTDWHENHMMDPTSVVPGSIMPAYKHMFKNAADIETAYAEAYTNKVVFGVPYDQPSGIKLGSFEEAKAAMFEEAKLIVEDMKNQDVKDALARGEIKEIVALIAYMNSLGQ | not soluble
GMSDEQHDSVWPPPGLDFSKPTIARVYDALLGGKDNFEADRALADYACKHIPGLKESAIENRKVLVRGVRFLAGEAGISQFLDLGSGLPTVQNTHEVAQSVNPDARVVYVDIDPMVLTHGRALLAKDPNTAVFTADVRDPEYILNHPDVRRMIDFSRPAAIMLVGMLHYLSPDVVDRVVGAYRDALAPGSYLFMTSLVDTGLPAQQKLARITRENLGEGWARTPEEIERQFGDFELVEPGVVYTALWRPDEPVDPDNLSPGEQLGMAGIGRKKA | soluble
AHHHHHHGSIEVRFHGRGGQGAVTAANILAEAAFLEGKYVQAFPFFGVERRGAPVTAFTRIDNKPIRIKTQIYEPDVVVVLDPSLLDAVDVTAGLKDEGIVIVNTEKSKEEVLEKLKKKPKKLAIVDATTIALEILGLPITNTAILGAVAKATGLVKIESIEEAIKDTFSGELGEKNARAAREAYEKTEVFEL | soluble
LLSDYYHKRFGVDTRSVRFPGLISNVTLPGGGTTDYAVDIYYAAVKEGRFTCPIKEGTYMDMMYMPDALRACVELMEADPARLVHRNSFNITAMSFEPSQIAAAVKKLVPDFVMNYEVDPLRQGIAESWPNSLDDSCARSEWDWKPDYDLDSMSADMIQILKARYGK | not soluble
MSDEWEQLTVELRKIPRGTEAAPQYLRHLMKMFVADFETAVSKRFDVKFWNKLKSMMDEITKAMENDRLVNHNVQNLAIGFLTDLSLLVHYHYEIPNYGNDISKQLTWTPDVFLNRKPIKSKKNSRVFMAYVLLRMGDLMRYKENYPKAQEYYEQSCRINPADGAVWNQLGLISSLGAKNLESVYFHTRALHATMEFPTASGGLTNIFKNFANRDISRPMPIKDLYLSCLGRIHFLLEIEDSSVHLQKIGEEAATSKEMIVPLMSVYKHLEDGTELEQRAVEYVKTIWCTAYRSLLKTLDDYKEESKKLADVPHLLHILALLLCAPKLLRGIEDQTEDEVTSICEWLLCANCDEKIKDSDAFGYFHCLQRIQYPLTRTQLAQKLVEIEDEDESKDSDQSTIPEEDQKSLSTDTSRIQNEDSEPESESESSDEEVLQRGRRRGRNPNLDESVETDEDEF | not soluble
HLDGRGAAMMEMAGLAQKGGAVQIHCRIAEKPSDISAIRVAVGEADGVIGGDLVVTAGAKTLGLMSQGRTGAVVNSHDIVTGEFTRNTDFRVPSDRLQVSLQARLQDRVAFLDATELARILMGDSIYSNMMVFGAAWQRGLIPLSAEAIQRAIELNGAAVAQNARAFALGRWAVL | not soluble
MGSDKIHHHHHHMSRTLVLFDIDGTLLKVESMNRRVLADALIEVYGTEGSTGSHDFSGKMDGAIIYEVLSNVGLERAEIADKFDKAKETYIALFRERARREDITLLEGVRELLDALSSRSDVLLGLLTGNFEASGRHKLKLPGIDHYFPFGAFADDALDRNELPHIALERARRMTGANYSPSQIVIIGDTEHDIRCARELDARSIAVATGNFTMEELARHKPGTLFKNFAETDEVLASILTPKHS | not soluble
